# In patent publication US9561289B2, “Peptides for inhibiting tumor growth” (OSPEDALE SAN RAFFAELE SRL, priority 2012, dated 2017):
# Read-outs that look alike come from different tables or passages of the source. *1 amine or outer side, *2 acyl side, *3 side chain or, on linkers, in order; H or OH if unused. Where a SMILES comes first, the peptide text is derived from it. Bridges are numbered along the chain shown (N, C = ends). Primed or numbered codes have the meaning given here. Side-chain parts run from the residue outwards. [ ]: non-standard residue; d: D form. The star is where a group is joined. X1 = NC(=O)C1CCC(CN2C(=O)CC(*)C2=O)CC1; X2 = O=C(O)C1CCC(CN2C(=O)CC(*)C2=O)CC1; βAsp = O=C(O)[C@H](CC(=O)[*:2])N[*:1]; dPhg = N[C@@H](C(=O)O)c1ccccc1; SMCC = sulfo-SMCC linker; OH′ = O*
# Legend:
# αvβ5 = molecular target: T1, αvβ5 (Homo sapiens, UniProt P06756+P18084); experiment: Competitive integrin binding assay (isoDGR/STV-HRP) on αvβ5-coated plates; conditions: for ratio of integrin Ki/αvβ3 Ki (αvβ5): number in parenthesis
# T1 construct: purchased Immunological Sciences (Rome, Italy)
# Procedure: (§1) A conjugate consisting of biotinylated acetyl-Ciso[…] (SEQ ID NO:36) peptide complexed with streptavidin-peroxidase conjugate (isoDGR/STV-HRP) was first prepared as described previously. […] Each mixture was then added to microtiter plates coated with integrins (αvβ3, αvβ5, αvβ6, […], or α5β1) and incubated for 2 h at room temperature. After washing, each well was incubated with 70 μl of chromogenic solution (o-phenylenediamine dihydrochloride) for 20 min, at room temperature. The chromogenic reaction was stopped by adding an equal volume of 1 N sulfuric acid. The absorbance at 490 nm was then measured using a microtiter plate reader.
# (§2) The binding affinity and selectivity of each peptide for different integrins were then analyzed by competitive binding assay, using αvβ3-, αvβ5-, αvβ6-, αvβ8- and α5β1-coated plates and isoDGR/STV-HRP, an ac-isoDGR-2C/peroxidase complex, as competitor.
# αvβ6 = molecular target: T2, αvβ6 (Homo sapiens, UniProt P06756+P18564); experiment: Competitive integrin binding assay (isoDGR/STV-HRP) on αvβ6-coated plates; conditions: for ratio of integrin Ki/αvβ3 Ki (αvβ6): number in parenthesis; for Ki: mean ± SE
# T2 construct: purchased R&D System (Minneapolis, Minn.)
# Procedure: as §1, §2
# α5β1 = molecular target: T3, α5β1 (Homo sapiens, UniProt P05556+P08648); experiment: Competitive integrin binding assay (isoDGR/STV-HRP) on α5β1-coated plates; conditions: for ratio of integrin Ki/αvβ3 Ki (α5β1): number in parenthesis
# T3 construct: purchased Immunological Sciences (Rome, Italy)
# Procedure: as §1, §2
# αvβ8 = molecular target: T4, αvβ8 (Homo sapiens, UniProt P06756+P26012); experiment: Competitive integrin binding assay (isoDGR/STV-HRP) on αvβ8-coated plates; conditions: for ratio of integrin Ki/αvβ3 Ki (αvβ8): number in parenthesis
# T4 construct: purchased R&D System (Minneapolis, Minn.)
# Procedure: as §1, §2
# αvβ3 = molecular target: T5, αvβ3 (Homo sapiens, UniProt P05106+P06756); experiment: Competitive integrin binding assay (isoDGR/STV-HRP) on αvβ3-coated plates; conditions: for ratio of integrin Ki/αvβ3 Ki (αvβ3): number in parenthesis
# T5 construct: purchased Immunological Sciences (Rome, Italy)
# Procedure: as §1, §2
# [1] = Asn deamidation of NGR peptides by mass spectrometry; format: physicochemical; conditions: 37° C., 0.1 M ammonium bicarbonate buffer, pH 8.5
# Procedure: Orbitrap-ESI mass spectrometry analysis of NGR#3 and NGR-2C at various time points after incubation at 37° C. in 0.1 M ammonium bicarbonate buffer (Ambic), pH 8.5. During the analyses the NGR#3 forms dimers. +0 (no deamidation), +0.5 (one deamidation/molecule) and +1 (two deamidations/molecule) correspond to the difference between found and expected molecular masses in daltons.
# It is well known that NGR may undergo Asn deamidation generating isoDGR, an integrin binding motif. To assess whether the molecular scaffold of NGR might affect the deamidation rate we analyzed the molecular masses of NGR#3 and […] (SEQ ID NO:37) (NGR-2C) before and after incubation at 37° C. in 0.1 M ammonium bicarbonate buffer, pH 8.5 (AmBic) for various times. […] The extent of binding of heat-treated NGR-HSA was very similar to that obtained with isoDGR#3-HSA, i.e. a conjugate prepared using a similar peptide having isoAsp in place of Asn (FIG. 17B, right).
# Human integrin αvβ5 [2] = molecular target: T6, Human integrin αvβ5 (human, UniProt P06756 31-1048; P18084 24-799, limits assumed); experiment: competitive binding assay, integrin-coated plate, probe isoDGR/STV-HRP
# T6 construct: Bought from Immunological Sciences; coated on microtiter plates
# Human integrin αvβ3 [3] = molecular target: T7, Human integrin αvβ3 (human, UniProt P06756 31-1048; P05106 27-788, limits assumed); experiment: as above
# T7 construct: Bought from Immunological Sciences; coated on microtiter plates or spotted on nitrocellulose; also called avb3; purified αvβ3-integrin
# Human integrin α5β1 [4] = molecular target: T8, Human integrin α5β1 (human, UniProt P08648 42-1049; P05556 21-798, limits assumed); experiment: as above
# T8 construct: Bought from Immunological Sciences; coated on microtiter plates
# [5] = molecular target: T9, Recombinant human integrin αvβ6 (human, UniProt P06756 31-992; P18564 22-707); experiment: as above
# T9 construct: Bought from R&D System
# [6] = molecular target: T10, Recombinant human integrin αvβ8 (human, UniProt P06756 31-992; P26012 43-684); experiment: as above
# T10 construct: Bought from R&D System; also called αvβ38 [sic]
# Human integrin αvβ5 [7] = molecular target: T6, Human integrin αvβ5; experiment: as above; remark: listed apart in the source
# Human integrin αvβ3 [8] = molecular target: T7, Human integrin αvβ3; experiment: as above; remark: listed apart in the source
# Human integrin α5β1 [9] = molecular target: T8, Human integrin α5β1; experiment: as above; remark: listed apart in the source
# [10] = molecular target: T9, Recombinant human integrin αvβ6; experiment: as above; remark: listed apart in the source
# [11] = molecular target: T10, Recombinant human integrin αvβ8; experiment: as above; remark: listed apart in the source
molecule,measurement,setting,value
N=C(N)NCCC[C@@H]1NC(=O)CNC(=O)C[C@@H](C(=O)O)NC(=O)CNC(=O)[C@H](CSC2CC(=O)N(CC3CCC(C(N)=O)CC3)C2=O)NC(=O)CNC1=O (stereo partly shown) [isoDGR#1-P1] (GRGC(X1)GD-OH; lactam N-6),ratio of integrin Ki/αvβ3 Ki (αvβ5),αvβ5,(1)^
same,ratio of integrin Ki/αvβ3 Ki (αvβ6),αvβ6,(17)
same,ratio of integrin Ki/αvβ3 Ki (α5β1),α5β1,(8.6)
same,ratio of integrin Ki/αvβ3 Ki (αvβ8),αvβ8,(160)
same,ratio of integrin Ki/αvβ3 Ki (αvβ3),αvβ3,(1)
N=C(N)NCCC[C@@H]1NC(=O)CNC(=O)C[C@@H](C(=O)O)NC(=O)CNC(=O)[C@H](CSC2CC(=O)N(CC3CCC(C(=O)O)CC3)C2=O)NC(=O)CNC1=O (stereo partly shown) [isoDGR#1-P2] (GRGC(X2)GD-OH; lactam N-6),ratio of integrin Ki/αvβ3 Ki (αvβ5),αvβ5,(1.6)
same,ratio of integrin Ki/αvβ3 Ki (αvβ6),αvβ6,(80)
same,ratio of integrin Ki/αvβ3 Ki (α5β1),α5β1,(9.6)
same,ratio of integrin Ki/αvβ3 Ki (αvβ8),αvβ8,(318)
same,ratio of integrin Ki/αvβ3 Ki (αvβ3),αvβ3,(1)
"N=C(N)NCCC[C@@H]1NC(=O)CNC(=O)C[C@@H](C(=O)O)NC(=O)[C@H](CS)NC(=O)CNC1=O [isoDGR#2, c(CisoDGRG)] (GRGCD-OH; lactam N-5)",ratio of integrin Ki/αvβ3 Ki (αvβ5),αvβ5,(1)
same,ratio of integrin Ki/αvβ3 Ki (αvβ6),αvβ6,(1.9)
same,ratio of integrin Ki/αvβ3 Ki (α5β1),α5β1,(0.5)
same,ratio of integrin Ki/αvβ3 Ki (αvβ8),αvβ8,(2.2)
same,ratio of integrin Ki/αvβ3 Ki (αvβ3),αvβ3,(1)
N=C(N)NCCC[C@@H]1NC(=O)CNC(=O)C[C@@H](C(=O)O)NC(=O)[C@H](CSC2CC(=O)N(CC3CCC(C(=O)O)CC3)C2=O)NC(=O)CNC(=O)CNC1=O (stereo partly drawn) [isoDGR#3-P2] (GRGGC(X2)D-OH; lactam N-6),Ki,αvβ6,468 nM
same,ratio of integrin Ki/αvβ3 Ki (αvβ6),αvβ6,(26)
same,Ki,αvβ8; mean ± SE,430 nM
same,ratio of integrin Ki/αvβ3 Ki (αvβ8),αvβ8,(24)
same,ratio of integrin Ki/αvβ3 Ki (αvβ3),αvβ3,(1)
"N=C(N)NCCC[C@@H]1NC(=O)CNC(=O)C[C@@H](C(=O)O)NC(=O)CNC(=O)[C@H](CS)NC(=O)[C@@H](c2ccccc2)NC1=O [isoDGR#5, c(CGisoDGRphg)] (GR[dPhg]CGD-OH; lactam N-6)",ratio of integrin Ki/αvβ3 Ki (αvβ5),αvβ5,(1.30)
same,ratio of integrin Ki/αvβ3 Ki (αvβ6),αvβ6,(3.7)
same,ratio of integrin Ki/αvβ3 Ki (α5β1),α5β1,(3.26)
same,ratio of integrin Ki/αvβ3 Ki (αvβ8),αvβ8,(42)
same,ratio of integrin Ki/αvβ3 Ki (αvβ3),αvβ3,(1)
"N=C(N)NCCC[C@@H]1NC(=O)CNC(=O)C[C@@H](C(=O)O)NC(=O)[C@H](CS)NC(=O)[C@@H](c2ccccc2)NC(=O)CNC1=O [isoDGR#7, c(CisoDGRGphg)] (GRG[dPhg]CD-OH; lactam N-6)",ratio of integrin Ki/αvβ3 Ki (αvβ5),αvβ5,(0.6)
same,ratio of integrin Ki/αvβ3 Ki (αvβ6),αvβ6,(0.03)
same,ratio of integrin Ki/αvβ3 Ki (α5β1),α5β1,(0.04)
same,ratio of integrin Ki/αvβ3 Ki (αvβ8),αvβ8,(0.4)
same,ratio of integrin Ki/αvβ3 Ki (αvβ3),αvβ3,(1)
*AV(0:1): sulfo-SMCC-activated avidin lacking the peptide [reference compound],Ki,αvβ5; mean ± SE,> 2500 nM
same,Ki,αvβ6,> 2500 nM
same,Ki,α5β1; mean ± SE,> 2500 nM
same,Ki,αvβ3; mean ± SE,> 2500 nM
"CNGRCGVRY [NGR-2C, reference compound]",deamidation rate,[1],faster than that of NGR#3
c(CNGRGG) (cyclic; Cyclic peptide) [NGR#3],deamidation rate,[1],reduce the deamidation rate
"cyclo(C([SMCC-OH′])G[βAsp]GRG) (HPLC peak P2 (carboxylic form, partial hydrolysis of sulfo-succinimide); also called isoDGR#1-P2) [isoDGR#1-linker conjugate, peak P2]",Ki,Human integrin αvβ5 [2],52 nM
same,ratio of integrin Ki/αvβ3 Ki,Human integrin αvβ5 [2],1.6
same,Ki,Human integrin αvβ3 [3],33 nM
same,ratio of integrin Ki/αvβ3 Ki,Human integrin αvβ3 [3],1
same,Ki,Human integrin α5β1 [4],318 nM
same,ratio of integrin Ki/αvβ3 Ki,Human integrin α5β1 [4],9.6
same,Ki,[5],2730 nM
same,ratio of integrin Ki/αvβ3 Ki,[5],80
same,Ki,[6],10.5 µM
same,ratio of integrin Ki/αvβ3 Ki,[6],318
"cyclo(C([SMCC-NH2])G[βAsp]GRG) (HPLC peak P1 (amido form); also called isoDGR#1-P1) [isoDGR#1-linker conjugate, peak P1]",Ki,Human integrin αvβ5 [2],35 nM
same,ratio of integrin Ki/αvβ3 Ki,Human integrin αvβ5 [2],1
same,Ki,Human integrin αvβ3 [3],35 nM
same,ratio of integrin Ki/αvβ3 Ki,Human integrin αvβ3 [3],1
same,Ki,Human integrin α5β1 [4],302 nM
same,ratio of integrin Ki/αvβ3 Ki,Human integrin α5β1 [4],8.6
same,Ki,[5],583 nM
same,ratio of integrin Ki/αvβ3 Ki,[5],17
same,Ki,[6],5.6 µM
same,ratio of integrin Ki/αvβ3 Ki,[6],160
"cyclo(C(SMCC)[βAsp]GRGG) (not fully specified, said to be similar to isoDGR#1-linker (P2 carboxylic form); also called isoDGR#3-P2) [isoDGR#3-linker conjugate, peak P2]",Ki,Human integrin αvβ3 [3],18 nM
"cyclo(C[βAsp]GRGG) (SMILES N=C(N)NCCC[C@@H]1NC(=O)CNC(=O)C[C@@H](C(=O)O)NC(=O)[C@H](CS)NC(=O)CNC(=O)CNC1=O, also called isoDGR#3) [c(CisoDGRGG)]",Ki,Human integrin αvβ5 [7],42 nM
same,Ki,Human integrin αvβ3 [8],43 nM
same,Ki,Human integrin α5β1 [9],21 nM
same,Ki,[10],58 nM
same,Ki,[11],54 nM
"cyclo(C[βAsp]GRG) (SMILES N=C(N)NCCC[C@@H]1NC(=O)CNC(=O)C[C@@H](C(=O)O)NC(=O)[C@H](CS)NC(=O)CNC1=O, also called isoDGR#2) [c(CisoDGRG)]",Ki,Human integrin αvβ5 [7],492 nM
same,ratio of integrin Ki/αvβ3 Ki,Human integrin αvβ5 [7],1
same,Ki,Human integrin αvβ3 [8],483 nM
same,ratio of integrin Ki/αvβ3 Ki,Human integrin αvβ3 [8],1
same,Ki,Human integrin α5β1 [9],266 nM
same,ratio of integrin Ki/αvβ3 Ki,Human integrin α5β1 [9],0.5
same,Ki,[10],899 nM
same,ratio of integrin Ki/αvβ3 Ki,[10],1.9
same,Ki,[11],1080 nM
same,ratio of integrin Ki/αvβ3 Ki,[11],2.2
"cyclo(CG[βAsp]GRG) (SMILES N=C(N)NCCC[C@@H]1NC(=O)CNC(=O)C[C@@H](C(=O)O)NC(=O)CNC(=O)[C@H](CS)NC(=O)CNC1=O, also called isoDGR#1) [c(CGisoDGRG)]",Ki,Human integrin αvβ5 [7],225 nM
same,ratio of integrin Ki/αvβ3 Ki,Human integrin αvβ5 [7],2
same,Ki,Human integrin αvβ3 [8],103 nM
same,ratio of integrin Ki/αvβ3 Ki,Human integrin αvβ3 [8],1
same,Ki,Human integrin α5β1 [9],320 nM
same,ratio of integrin Ki/αvβ3 Ki,Human integrin α5β1 [9],3
same,Ki,[10],1470 nM
same,ratio of integrin Ki/αvβ3 Ki,[10],14
same,Ki,[11],7270 nM
same,ratio of integrin Ki/αvβ3 Ki,[11],70
